T1: LIN7A, O14910
T1 sequence (O14910 103-200, limits assumed, looked up): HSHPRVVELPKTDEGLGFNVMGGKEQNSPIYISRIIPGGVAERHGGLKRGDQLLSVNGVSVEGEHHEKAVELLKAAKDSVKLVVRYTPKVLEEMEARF

T2: PTPN13_1, Q12923
T2 sequence (Q12923 1088-1188, limits assumed, looked up): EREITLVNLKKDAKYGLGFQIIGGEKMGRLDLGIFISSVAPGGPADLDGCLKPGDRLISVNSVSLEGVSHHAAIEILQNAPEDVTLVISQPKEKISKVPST

T3: DLG3_2, Q92796
T3 sequence (Q92796 221-321, limits assumed, looked up): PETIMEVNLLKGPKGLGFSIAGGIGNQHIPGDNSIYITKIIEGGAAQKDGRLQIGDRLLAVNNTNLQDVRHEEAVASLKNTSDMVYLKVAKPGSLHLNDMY

T4: SHANK1, Q9Y566
T4 sequence (Q9Y566 658-767, limits assumed, looked up): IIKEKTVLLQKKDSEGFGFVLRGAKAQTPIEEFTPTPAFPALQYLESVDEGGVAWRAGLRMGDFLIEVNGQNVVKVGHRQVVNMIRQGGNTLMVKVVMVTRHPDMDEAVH

T5: MPDZ_12, O75970
T5 sequence (O75970 1857-1958, limits assumed, looked up): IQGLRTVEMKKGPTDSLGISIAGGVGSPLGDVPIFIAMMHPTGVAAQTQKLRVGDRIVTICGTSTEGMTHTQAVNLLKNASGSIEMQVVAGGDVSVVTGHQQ

T6: ARHGEF11, O15085
T6 sequence (O15085 42-136, limits assumed, looked up): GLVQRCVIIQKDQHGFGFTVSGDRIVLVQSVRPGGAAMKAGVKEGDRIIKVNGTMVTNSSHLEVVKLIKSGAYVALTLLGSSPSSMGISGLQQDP

T7: TX1BP3, O14907
T7 sequence (O14907 10-122, limits assumed, looked up): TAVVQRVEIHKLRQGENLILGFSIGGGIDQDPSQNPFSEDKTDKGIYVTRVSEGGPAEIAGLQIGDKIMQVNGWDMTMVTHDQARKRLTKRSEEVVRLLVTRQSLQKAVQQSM

T8: FRMPD1, Q5SYB0
T8 sequence (Q5SYB0 52-145, limits assumed, looked up): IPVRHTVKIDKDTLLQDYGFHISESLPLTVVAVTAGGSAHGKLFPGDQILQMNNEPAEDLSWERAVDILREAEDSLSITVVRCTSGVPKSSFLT

T9: PCLO, Q9Y6V0
T9 sequence (Q9Y6V0 4491-4600, limits assumed, looked up): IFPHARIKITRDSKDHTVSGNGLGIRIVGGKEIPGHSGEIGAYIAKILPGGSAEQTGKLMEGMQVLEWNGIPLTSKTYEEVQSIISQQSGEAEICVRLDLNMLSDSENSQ


Columns and labels:
Assay in all cases: holdup assay
Design in all cases: key: below the threshold = too weak to quantify, mostly under pKd 3.1 to 4
Settings in all cases: plain residues with an end cap or a label only (N-terminal biotin on a linker: ado-ado)
LIN7A, O14910 = molecular target: T1, LIN7A, O14910
PTPN13_1, Q12923 = molecular target: T2, PTPN13_1, Q12923
DLG3_2, Q92796 = molecular target: T3, DLG3_2, Q92796
DLG1_1, Q12959 = molecular target: DLG1_1, Q12959
MAGI2_6, Q86UL8 = molecular target: MAGI2_6, Q86UL8
Chain of MAGI2_6, Q86UL8 (Q86UL8 1141-1229): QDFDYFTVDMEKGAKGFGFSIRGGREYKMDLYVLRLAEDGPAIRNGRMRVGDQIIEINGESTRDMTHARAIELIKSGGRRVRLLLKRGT

GRASP, Q7Z6J2 = molecular target: GRASP, Q7Z6J2
Chain of GRASP, Q7Z6J2 (Q7Z6J2 96-193): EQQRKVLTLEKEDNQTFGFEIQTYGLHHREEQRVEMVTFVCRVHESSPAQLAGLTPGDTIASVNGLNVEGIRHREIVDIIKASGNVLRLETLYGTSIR

NHERF4_4, Q86UT5 = molecular target: NHERF4_4, Q86UT5
Chain of NHERF4_4, Q86UT5 (Q86UT5 464-550): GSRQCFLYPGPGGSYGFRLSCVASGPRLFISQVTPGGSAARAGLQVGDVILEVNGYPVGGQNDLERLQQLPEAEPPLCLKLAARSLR

SHANK1, Q9Y566 = molecular target: T4, SHANK1, Q9Y566
MPDZ_12, O75970 = molecular target: T5, MPDZ_12, O75970
Inadl_9, Q8NI35 = molecular target: Inadl_9, Q8NI35
Chain of Inadl_9, Q8NI35 (Q8NI35 1530-1615): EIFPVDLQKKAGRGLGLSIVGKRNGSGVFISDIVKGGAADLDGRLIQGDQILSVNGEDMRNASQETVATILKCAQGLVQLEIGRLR

GIPC2, Q8TF65 = molecular target: GIPC2, Q8TF65
Chain of GIPC2, Q8TF65 (Q8TF65 112-203): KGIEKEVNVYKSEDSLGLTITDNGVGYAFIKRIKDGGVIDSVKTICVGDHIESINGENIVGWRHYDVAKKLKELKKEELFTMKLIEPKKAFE

MAGI2_3, Q86UL8 = molecular target: MAGI2_3, Q86UL8
Chain of MAGI2_3, Q86UL8 (Q86UL8 600-682): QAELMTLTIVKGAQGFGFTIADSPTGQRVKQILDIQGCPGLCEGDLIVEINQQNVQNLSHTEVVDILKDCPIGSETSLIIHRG

GORASP2, Q9H8Y8 = molecular target: GORASP2, Q9H8Y8
GRID2IP_1, A4D2P6 = molecular target: GRID2IP_1, A4D2P6
Chain of GRID2IP_1, A4D2P6 (A4D2P6 1-87): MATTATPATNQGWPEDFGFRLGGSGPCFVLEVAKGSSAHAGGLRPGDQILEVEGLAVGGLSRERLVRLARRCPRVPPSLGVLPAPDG

DLG2_3, Q15700 = molecular target: DLG2_3, Q15700
PDZRN4_1, Q6ZMN7 = molecular target: PDZRN4_1, Q6ZMN7
Chain of PDZRN4_1, Q6ZMN7 (Q6ZMN7 213-318): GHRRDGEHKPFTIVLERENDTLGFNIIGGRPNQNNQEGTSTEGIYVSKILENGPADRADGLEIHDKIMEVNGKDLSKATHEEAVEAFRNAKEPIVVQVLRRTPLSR

Inadl_10, Q8NI35 = molecular target: Inadl_10, Q8NI35
Chain of Inadl_10, Q8NI35 (Q8NI35 1673-1763): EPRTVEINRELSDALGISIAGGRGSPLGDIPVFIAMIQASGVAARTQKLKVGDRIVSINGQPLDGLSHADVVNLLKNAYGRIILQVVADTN

Inadl_5, Q8NI35 = molecular target: Inadl_5, Q8NI35
Chain of Inadl_5, Q8NI35 (Q8NI35 673-780): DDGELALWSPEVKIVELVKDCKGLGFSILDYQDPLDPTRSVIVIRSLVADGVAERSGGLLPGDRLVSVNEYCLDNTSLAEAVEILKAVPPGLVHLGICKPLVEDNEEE

MAGI2_2, Q86UL8 = molecular target: MAGI2_2, Q86UL8
Chain of MAGI2_2, Q86UL8 (Q86UL8 410-522): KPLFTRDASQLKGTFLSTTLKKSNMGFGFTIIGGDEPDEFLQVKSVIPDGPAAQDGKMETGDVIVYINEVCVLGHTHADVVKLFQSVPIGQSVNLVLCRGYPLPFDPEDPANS

DLG5_1, Q8TDM6 = molecular target: DLG5_1, Q8TDM6
Chain of DLG5_1, Q8TDM6 (Q8TDM6 617-713): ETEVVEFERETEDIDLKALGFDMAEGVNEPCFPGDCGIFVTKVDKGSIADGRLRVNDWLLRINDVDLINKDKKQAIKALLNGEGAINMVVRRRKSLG

LNX1_1, Q8TBB1 = molecular target: LNX1_1, Q8TBB1
Chain of LNX1_1, Q8TBB1 (Q8TBB1 261-371): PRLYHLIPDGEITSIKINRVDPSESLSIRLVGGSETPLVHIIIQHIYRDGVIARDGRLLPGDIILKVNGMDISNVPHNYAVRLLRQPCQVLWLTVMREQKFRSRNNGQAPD

ARHGEF11, O15085 = molecular target: T6, ARHGEF11, O15085
NHERF2_2, Q15599 = molecular target: NHERF2_2, Q15599
Chain of NHERF2_2, Q15599 (Q15599 142-238): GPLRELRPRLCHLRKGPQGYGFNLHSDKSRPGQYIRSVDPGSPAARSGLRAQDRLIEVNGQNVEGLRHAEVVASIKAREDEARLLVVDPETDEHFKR

TX1BP3, O14907 = molecular target: T7, TX1BP3, O14907
MAST2, Q6P0Q8 = molecular target: MAST2, Q6P0Q8
Chain of MAST2, Q6P0Q8 (Q6P0Q8 1099-1202): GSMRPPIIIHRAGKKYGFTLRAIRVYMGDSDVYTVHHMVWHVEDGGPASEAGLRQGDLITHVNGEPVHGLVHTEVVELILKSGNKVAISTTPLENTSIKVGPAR

FRMPD1, Q5SYB0 = molecular target: T8, FRMPD1, Q5SYB0
PTPN3, P26045 = molecular target: PTPN3, P26045
Chain of PTPN3, P26045 (P26045 505-587): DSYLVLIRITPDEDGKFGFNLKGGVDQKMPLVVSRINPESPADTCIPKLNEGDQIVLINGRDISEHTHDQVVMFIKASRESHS

PCLO, Q9Y6V0 = molecular target: T9, PCLO, Q9Y6V0
Inadl_1, Q8NI35 = molecular target: Inadl_1, Q8NI35
Chain of Inadl_1, Q8NI35 (Q8NI35 113-229): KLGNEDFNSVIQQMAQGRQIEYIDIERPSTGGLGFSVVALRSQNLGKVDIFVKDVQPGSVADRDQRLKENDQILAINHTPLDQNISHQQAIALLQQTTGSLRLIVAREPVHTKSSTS

Row | pKd (LIN7A, O14910) | pKd (PTPN13_1, Q12923) | pKd (DLG3_2, Q92796) | pKd (DLG1_1, Q12959) | pKd (MAGI2_6, Q86UL8) | pKd (GRASP, Q7Z6J2) | pKd (NHERF4_4, Q86UT5) | pKd (SHANK1, Q9Y566) | pKd (MPDZ_12, O75970) | pKd (Inadl_9, Q8NI35) | pKd (GIPC2, Q8TF65) | pKd (MAGI2_3, Q86UL8) | pKd (GORASP2, Q9H8Y8) | pKd (GRID2IP_1, A4D2P6) | pKd (DLG2_3, Q15700) | pKd (PDZRN4_1, Q6ZMN7) | pKd (Inadl_10, Q8NI35) | pKd (Inadl_5, Q8NI35) | pKd (MAGI2_2, Q86UL8) | pKd (DLG5_1, Q8TDM6) | also measured | Binder
1 | below the threshold | below the threshold | 3.56 | below the threshold | below the threshold | below the threshold | below the threshold | below the threshold | below the threshold | below the threshold | below the threshold | below the threshold | below the threshold | below the threshold | below the threshold | below the threshold | below the threshold | below the threshold | below the threshold | below the threshold | pKd (LNX1_1, Q8TBB1): below the threshold; pKd (ARHGEF11, O15085): below the threshold; pKd (NHERF2_2, Q15599): below the threshold; pKd (TX1BP3, O14907): 3.47; pKd (MAST2, Q6P0Q8): below the threshold; pKd (FRMPD1, Q5SYB0): below the threshold; pKd (PTPN3, P26045): 3.97; pKd (PCLO, Q9Y6V0): below the threshold; pKd (Inadl_1, Q8NI35): below the threshold | LSEFKAMDSI [CTNNA1, P35221]
2 | 3.52 | below the threshold | 3.63 | below the threshold | 3.56 | 3.77 | below the threshold | 3.73 | below the threshold | below the threshold | below the threshold | 3.48 | below the threshold | below the threshold | below the threshold | below the threshold | 3.59 | below the threshold | below the threshold | below the threshold | pKd (LNX1_1, Q8TBB1): 3.92; pKd (ARHGEF11, O15085): 3.7; pKd (NHERF2_2, Q15599): 4.84; pKd (TX1BP3, O14907): 4.15; pKd (MAST2, Q6P0Q8): 4.83; pKd (FRMPD1, Q5SYB0): below the threshold; pKd (PTPN3, P26045): 4.35; pKd (PCLO, Q9Y6V0): below the threshold; pKd (Inadl_1, Q8NI35): 3.48 | EVNETDDTKM [KCNJ1, P48048]
3 | below the threshold | below the threshold | below the threshold | below the threshold | below the threshold | below the threshold | below the threshold | 3.53 | below the threshold | below the threshold | below the threshold | below the threshold | below the threshold | below the threshold | below the threshold | below the threshold | below the threshold | below the threshold | below the threshold | 3.57 | pKd (LNX1_1, Q8TBB1): below the threshold; pKd (ARHGEF11, O15085): 3.92; pKd (NHERF2_2, Q15599): 3.58; pKd (TX1BP3, O14907): below the threshold; pKd (MAST2, Q6P0Q8): below the threshold; pKd (FRMPD1, Q5SYB0): below the threshold; pKd (PTPN3, P26045): 3.93; pKd (PCLO, Q9Y6V0): below the threshold; pKd (Inadl_1, Q8NI35): below the threshold | TPPAAKKSRI [BAZ1A, Q9NRL2]
4 | below the threshold | below the threshold | 4.7 | 4.11 | 3.88 | below the threshold | below the threshold | below the threshold | below the threshold | below the threshold | below the threshold | below the threshold | 3.91 | below the threshold | 3.57 | below the threshold | below the threshold | below the threshold | 4.06 | below the threshold | pKd (LNX1_1, Q8TBB1): below the threshold; pKd (ARHGEF11, O15085): 4.29; pKd (NHERF2_2, Q15599): below the threshold; pKd (TX1BP3, O14907): 4.22; pKd (MAST2, Q6P0Q8): 5.07; pKd (FRMPD1, Q5SYB0): below the threshold; pKd (PTPN3, P26045): 3.65; pKd (PCLO, Q9Y6V0): below the threshold; pKd (Inadl_1, Q8NI35): below the threshold | VNKSKLLTDV [KCNA1, Q09470]

— PMC9482650, “Quantitative fragmentomics allow affinity mapping of interactomes” (Nature Communications, 2022)
